# Test results as given in paper PMC4972647 (Nature structural & molecular biology, 2016).
# B1: ABD (V541-E685) of human GlyRS (domain or fragment)
# chain: VREGDEQRTFFSFPAVVAPFKCSVLPLSQNQEFMPFVKELSEALTRHGVSHKVDDSSGSIGRRYARTDEIGVAFGVTIDFDTVNKTPHTATLRDRDSMRQIRAEISELPSIVQDLANGNITWADVEARYPLFEGQETGKKETIEE
# Assays:
# Experiment in all cases: BLI
# [1] = target: NEDD8-conjugated Ubc12 (Ubc12(C111S)^N8-His) (human) (UniProt P61081)
# [2] = target: N-terminal GST-tagged GlyRS (human)
# [3] = target: T1, GST-APPBP1 (human, UniProt Q13564 1-534)
# T1 sequence: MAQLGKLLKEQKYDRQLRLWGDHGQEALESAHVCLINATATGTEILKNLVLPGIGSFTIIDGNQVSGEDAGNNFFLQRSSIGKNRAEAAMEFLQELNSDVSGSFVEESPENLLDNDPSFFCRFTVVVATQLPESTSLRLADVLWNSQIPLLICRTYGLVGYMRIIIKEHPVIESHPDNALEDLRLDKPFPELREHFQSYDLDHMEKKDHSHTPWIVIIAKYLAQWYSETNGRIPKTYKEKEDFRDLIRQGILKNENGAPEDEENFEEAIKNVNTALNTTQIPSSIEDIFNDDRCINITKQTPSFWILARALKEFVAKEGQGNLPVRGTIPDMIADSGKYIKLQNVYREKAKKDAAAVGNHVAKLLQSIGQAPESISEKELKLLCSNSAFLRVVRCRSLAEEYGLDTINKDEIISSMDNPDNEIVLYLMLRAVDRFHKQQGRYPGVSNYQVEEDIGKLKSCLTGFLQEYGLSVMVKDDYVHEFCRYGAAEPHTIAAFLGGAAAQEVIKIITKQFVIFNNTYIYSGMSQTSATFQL
Molecule,Kd [1] [nM],Kd [2] [nM],further results
ΔInsertion1 GlyRS (F147-F224 replaced by GSGSGG) (from UniProt P41250-2 225-685) (enzyme),4.32,–,–
NEDD8-conjugated Ubc12 (Ubc12(C111S)^N8-His) (from UniProt P61081;Q15843) (complex),–,4.09,–
Tag-free wild type human GlyRS (enzyme),3.21,–,–
purified recombinant human NEDD8 (from UniProt Q15843 1-76) (natural protein),–,126,–
Δ84-93 GlyRS (F84-L93 replaced by GGG) (from UniProt P41250-2 94-685) (enzyme),27,–,–
G526R GlyRS (enzyme),39.5,–,–
purified recombinant human Ubc12 (from UniProt P61081 1-183) (enzyme),–,488,–
B1,–,–,binding result [3]: binds
